According to the supplement of paper PMC6379048:

Tests used:
Assay in all cases: EC50 of free RNA motif oligo competing protein binding to immobilised probe
LIN28B = target: T1, LIN28B (UniProt Q6ZN17)
T1 sequence: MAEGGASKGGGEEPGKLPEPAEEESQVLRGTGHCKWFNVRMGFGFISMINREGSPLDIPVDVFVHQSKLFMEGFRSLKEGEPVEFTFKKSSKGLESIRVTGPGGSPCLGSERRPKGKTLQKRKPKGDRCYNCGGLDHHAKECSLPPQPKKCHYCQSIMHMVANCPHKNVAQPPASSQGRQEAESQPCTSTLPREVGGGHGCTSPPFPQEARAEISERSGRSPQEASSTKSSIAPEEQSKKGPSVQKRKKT
Method: (§1)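 Competition-binding assay: HEK293-FT cell lysate (2.5 mg protein) pre-incubated 1 h at 4°C with free motif-containing RNA oligos (0 to 30 µM, 12 doses), then pulled down with the same 5'-amino-C6 RNA oligos immobilised on NHS-Sepharose beads (30 min, 4°C). Bound proteins were quantified by label-free LC-MS/MS and normalised to the water control. EC50 came from a four-parameter log-logistic fit; Kd = EC50 x depletion factor. Random/reversed control probes are dropped.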

DIS3L2 = target: T2, DIS3L2 (UniProt Q8IYB7)
T2 sequence: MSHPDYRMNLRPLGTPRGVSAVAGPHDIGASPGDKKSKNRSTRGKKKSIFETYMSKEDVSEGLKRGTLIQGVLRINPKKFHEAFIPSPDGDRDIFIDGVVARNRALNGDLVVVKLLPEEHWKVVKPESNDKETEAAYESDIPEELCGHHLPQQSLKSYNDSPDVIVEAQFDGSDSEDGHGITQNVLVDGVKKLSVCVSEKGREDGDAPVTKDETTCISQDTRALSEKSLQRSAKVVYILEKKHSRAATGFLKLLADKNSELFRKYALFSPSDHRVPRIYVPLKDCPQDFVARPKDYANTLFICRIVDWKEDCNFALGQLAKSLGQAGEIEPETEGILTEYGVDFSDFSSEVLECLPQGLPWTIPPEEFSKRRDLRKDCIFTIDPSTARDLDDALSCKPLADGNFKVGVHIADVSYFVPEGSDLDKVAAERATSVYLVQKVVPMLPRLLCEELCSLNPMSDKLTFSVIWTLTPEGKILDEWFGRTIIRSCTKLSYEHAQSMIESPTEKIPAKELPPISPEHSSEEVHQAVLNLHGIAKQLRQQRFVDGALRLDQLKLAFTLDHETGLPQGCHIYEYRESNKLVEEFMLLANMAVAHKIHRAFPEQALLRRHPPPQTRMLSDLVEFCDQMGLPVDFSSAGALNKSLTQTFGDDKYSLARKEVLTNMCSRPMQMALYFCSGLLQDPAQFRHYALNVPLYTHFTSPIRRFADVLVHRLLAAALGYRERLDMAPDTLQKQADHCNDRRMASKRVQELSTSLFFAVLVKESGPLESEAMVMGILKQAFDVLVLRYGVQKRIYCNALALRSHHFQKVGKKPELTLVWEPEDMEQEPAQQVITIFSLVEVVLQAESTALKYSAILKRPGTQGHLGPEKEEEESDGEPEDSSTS
Method: as §1

RTCA = target: T3, RTCA (UniProt O00442)
T3 sequence: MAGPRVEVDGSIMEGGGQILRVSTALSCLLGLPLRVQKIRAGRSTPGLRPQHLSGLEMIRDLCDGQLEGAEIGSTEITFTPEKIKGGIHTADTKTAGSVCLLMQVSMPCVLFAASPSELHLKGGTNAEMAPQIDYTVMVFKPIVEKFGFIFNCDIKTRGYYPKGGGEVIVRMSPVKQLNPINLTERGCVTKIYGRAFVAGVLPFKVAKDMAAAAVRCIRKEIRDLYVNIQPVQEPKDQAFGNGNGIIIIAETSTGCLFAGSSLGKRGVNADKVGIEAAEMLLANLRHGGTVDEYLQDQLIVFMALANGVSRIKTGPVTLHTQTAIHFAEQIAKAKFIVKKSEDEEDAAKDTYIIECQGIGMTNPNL
Method: as §1

ZCCHC8 = target: T4, ZCCHC8 (UniProt Q6NZY4)
T4 sequence: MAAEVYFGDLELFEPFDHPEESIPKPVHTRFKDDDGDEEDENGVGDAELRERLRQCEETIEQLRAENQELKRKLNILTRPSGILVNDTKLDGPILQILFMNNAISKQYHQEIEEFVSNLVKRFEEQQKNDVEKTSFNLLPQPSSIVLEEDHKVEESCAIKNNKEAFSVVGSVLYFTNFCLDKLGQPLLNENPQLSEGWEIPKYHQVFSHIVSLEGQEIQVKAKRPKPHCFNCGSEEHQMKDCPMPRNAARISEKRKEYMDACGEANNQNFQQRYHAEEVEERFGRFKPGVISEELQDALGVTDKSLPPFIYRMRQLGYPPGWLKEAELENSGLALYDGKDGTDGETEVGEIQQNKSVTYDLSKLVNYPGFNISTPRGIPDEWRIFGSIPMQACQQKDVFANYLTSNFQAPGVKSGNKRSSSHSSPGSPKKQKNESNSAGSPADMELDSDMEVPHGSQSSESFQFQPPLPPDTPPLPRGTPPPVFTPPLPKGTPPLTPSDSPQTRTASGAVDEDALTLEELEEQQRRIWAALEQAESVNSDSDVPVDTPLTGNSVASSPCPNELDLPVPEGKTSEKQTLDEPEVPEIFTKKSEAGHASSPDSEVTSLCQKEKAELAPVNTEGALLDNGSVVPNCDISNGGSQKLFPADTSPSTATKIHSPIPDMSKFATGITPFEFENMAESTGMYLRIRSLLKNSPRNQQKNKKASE
Method: as §1

With AAUAAA the EC50 (LIN28B) was 2920 nM, the EC50 (DIS3L2) was 1340 nM and the EC50 (RTCA) was 566 nM. For the same sequence, the EC50 (ZCCHC8) was 2460 nM.

For CUGUCCU, the EC50 (LIN28B) was 2300 nM, the EC50 (DIS3L2) was 1180 nM and the EC50 (RTCA) was 1940 nM. The EC50 (ZCCHC8) was 3110 nM.

With UAUUUAU the EC50 (LIN28B) was 1470 nM, the EC50 (DIS3L2) was 376 nM and the EC50 (RTCA) was 381 nM. For the same sequence, the EC50 (ZCCHC8) was 615 nM.
